Residue numbers refer to the chain shown, from its start. Read-outs that look alike come from different tables or passages of the source. Values belong to the molecule of their own block, whether it stands above or below them.
Key:
[1] = biological target: full-length wild type human ApoE3 recombinant protein (His-tagged) (human) (UniProt P02649); assay: ELISA, negative control
[2] = biological target: ApoEch peptide KLH-…-CONH2 (human); assay: ELISA, negative control
[3] = biological target: full-length ApoE3ch (ApoE3 Christchurch R136S) mutant recombinant protein (His-tagged) (human) (UniProt P02649); assay: ELISA, negative control
[4] = biological target: wild type ApoE peptide KLH-…-CONH2 (human); assay: ELISA, negative control
[5] = biological target: T1, ApoEch peptide KLH-CTEELRVSLASHLRK-CONH2 (human, not fully specified; C-terminal amide (CONH2); printed with KLH on the added N-terminal cysteine); assay: ELISA of the monoclonal antibody purified from cloned hybridoma, O.D. 450 nm against antibody concentration (ng/mL, log axis)
T1 construct: also called Mut peptide; mutant ApoE peptide
T1 peptide: CTEELRVSLASHLRK

[6] = biological target: T2, C-terminal domain ApoE3ch mutant recombinant protein (amino acids 125 to 299) (human, UniProt P02649 143-317); assay: ELISA, His-tagged ApoE protein on Ni-NTA plate, antibody diluted 1:1000 to 1:32000, anti-mouse HRP, absorbance 450 nm; x axis (printed 'Antibody Concentation') counts the dilution factor
T2 construct: also called C-terminal ApoE3ch mutant protein; APOE3 mutant c terminal protein; not shown: histidine tag
T2 chain: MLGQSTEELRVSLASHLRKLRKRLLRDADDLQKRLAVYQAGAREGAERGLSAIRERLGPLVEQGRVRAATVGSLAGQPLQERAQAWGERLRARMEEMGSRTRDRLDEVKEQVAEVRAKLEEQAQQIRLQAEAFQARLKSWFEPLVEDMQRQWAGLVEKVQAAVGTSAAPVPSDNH
Description: (§1) ELISA: Antibodies designed against the heparin-binding domain of ApoE were tested for their affinity to ApoE3 and ApoEch mutant recombinant proteins using ELISA. The Ni-NTA HisSorb Plates (Qiagen) were washed 3 times with wash buffer 1 (DY008). The ApoE recombinant proteins were suspended in buffer (DY008) to give a final concentration of 0.5 μg/ml. The plates were incubated with 200 μl of ApoE recombinant proteins for 2 hours, and washed 5 times with 1x wash buffer (DY008). The plates were then incubated with antibodies at a serial dilution of from 1:1,000 to 1:32,000 for overnight at 4° C. The plate was then washed 5 times in 1X wash buffer (DY008), and incubated with anti-mouse HRP (Abcam; ab97046, 1:10,000) for 45 minutes, followed by 5 washes in 1x wash buffer to ensure complete removal of unbound secondary antibody. The sulfuric acid from the ELISA reagent kit (DY008) was warmed to 37° C. 100 μl of tetramethylbenzidine (Millipore) was added to initiate the detection phase of the reaction. After a 5-min incubation, sulfuric acid was added to terminate the reaction. The plate was then read using Synery 2 microplate reader (BioTek Instrument. Inc) and the Gen5 version1.11 software).
(§2) To generate monoclonal antibodies against the heparin-binding domain of ApoE, mice were immunized using the wild type ApoE peptide: KLH-[…]-CONH₂ (SEQ ID NO:54), and the ApoEch peptide: KLH-[…]-CONH₂ (SEQ ID NO:55). A cysteine residue was added at the N-terminus to facilitate conjugation of the peptides. Cell fusions were obtained from positive clones and cell supernatants tested for activity against the wild type and mutant peptides and proteins. Seven antibodies generated were analyzed by ELISA as examples, as described in the materials and methods section.

[7] = biological target: T3, full-length ApoE3ch (ApoE3 Christchurch R136S) mutant recombinant protein (His-tagged) (human, UniProt P02649 19-317); assay: as above
T3 construct: also called ApoE3ch full length protein; APOE3ch Mutant; not shown: histidine tag
Description: as §1, §2

[8] = biological target: T4, bovine serum albumin (BSA) (bovine, UniProt P02769 25-607); assay: ELISA, BSA as control coat, antibody diluted 1:1000 to 1:32000, absorbance 450 nm; x axis counts the dilution factor
T4 sequence (P02769 25-607 limits assumed): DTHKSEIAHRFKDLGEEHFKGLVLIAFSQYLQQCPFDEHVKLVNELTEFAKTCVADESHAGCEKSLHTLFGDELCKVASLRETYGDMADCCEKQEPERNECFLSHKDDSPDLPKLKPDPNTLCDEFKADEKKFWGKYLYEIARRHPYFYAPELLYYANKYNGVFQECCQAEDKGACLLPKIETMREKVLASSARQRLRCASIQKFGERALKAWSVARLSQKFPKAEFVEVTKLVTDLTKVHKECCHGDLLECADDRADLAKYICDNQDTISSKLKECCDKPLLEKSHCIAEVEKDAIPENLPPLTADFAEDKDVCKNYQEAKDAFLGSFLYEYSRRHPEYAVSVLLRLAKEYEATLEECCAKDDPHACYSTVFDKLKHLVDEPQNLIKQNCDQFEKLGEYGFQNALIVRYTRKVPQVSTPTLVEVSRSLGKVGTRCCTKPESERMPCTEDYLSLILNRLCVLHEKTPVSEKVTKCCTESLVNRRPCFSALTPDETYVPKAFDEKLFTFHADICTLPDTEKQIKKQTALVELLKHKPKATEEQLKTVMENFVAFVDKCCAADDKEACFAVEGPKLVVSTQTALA
Description: as §1, with “100 μl of tetramethylbenzidine (Millipore) was added to initiate the detection phase of the reaction. After a 5-min incubation, sulfuric acid was added to terminate the reaction.” left out
To generate monoclonal antibodies against the heparin-binding domain of ApoE, mice were immunized using the wild type ApoE peptide: KLH-[…]-CONH₂ (SEQ ID NO:54), and the ApoEch peptide: KLH-[…]-CONH₂ (SEQ ID NO:55). […] Seven antibodies generated were analyzed by ELISA as examples, as described in the materials and methods section.

[9] = biological target: T5, C-terminal wild type ApoE3 recombinant protein (human, UniProt P02649 143-317, limits assumed); assay: ELISA, His-tagged ApoE protein on Ni-NTA plate, antibody diluted 1:1000 to 1:32000, absorbance 450 nm against dilution factor
T5 construct: also called C-terminal form of wild type ApoE3; c-terminus of the APOE3WT protein; not shown: histidine tag
Description: Antibodies designed against the heparin binding domain of APOE were tested for affinity to APOE3 and APOEch mutant recombinant protein using an ELISA. The Ni-NTA HisSorb Plates (Qiagen) plates were washed 3 times with wash buffer 1 (DY008), the APOE recombinant proteins were suspended in buffer (DY008) to give a final concentration of 0.5 μg/ml. The plates were incubated with 200 μl for 2 hours. The plate was then washed 5 times with 1x wash buffer (DY008), the plates were then incubated with antibodies in a serial dilution series from 1:1000 to 1:32000 and incubated overnight at 4° C. The plate is then washed 5 times in 1X wash buffer (DY008). The plates were then incubated with Anti-mouse HRP (Abcam; ab97046) (1:10000) for 45 minutes. The plate was then washed 5 times in 1x wash buffer to ensure complete removal of unbound secondary antibody. The Sulfuric acid from the ELISA reagent kit (DY008) was warmed to 37° C. prior to addition of 100 μl of tetramethylbenzidine (Millipore) initiating the detection phase of the reaction. […] The plate was then read using Synery 2 microplate reader (BioTek Instrument. Inc) and the Gen5 version1.11 software).
The 19G10-2 antibody was further evaluated using Heparin-Affinity chromatography, Western Blotting, Quantitative ELISA for chromatography fractions, and ELISA for binding analyses. […]

[10] = biological target: T1, ApoEch peptide KLH-CTEELRVSLASHLRK-CONH2; assay: ELISA of the monoclonal antibody purified from cloned hybridoma, O.D. 450 nm against antibody concentration (ng/mL, log axis)
[11] = biological target: T3, full-length ApoE3ch (ApoE3 Christchurch …); assay: ELISA subclones analysis, 7C11-1 serum on mutant protein, O.D. 450 nm against dilution factor
[12] = biological target: T1, ApoEch peptide KLH-CTEELRVSLASHLRK-CONH2; assay: ELISA, parental hybridoma clone
[13] = biological target: T6, full-length wild type human ApoE3 recombinant protein (His-tagged) (human, UniProt P02649 19-317); assay: ELISA, parental hybridoma clone
T6 construct: Recombinant protein from Innovagen; also called ApoE3 WT full-length protein; APOE3 WT; not shown: histidine tag

[14] = biological target: T3, full-length ApoE3ch (ApoE3 Christchurch …); assay: ELISA, parental hybridoma clone
[15] = biological target: T7, wild type ApoE peptide KLH-CTEELRVRLASHLRK-CONH2 (human, not fully specified; C-terminal amide (CONH2); printed with KLH on the added N-terminal cysteine); assay: ELISA, parental hybridoma clone
T7 construct: also called WT peptide; ApoE3 WT peptide
T7 peptide: CTEELRVRLASHLRK

[16] = biological target: T4, bovine serum albumin (BSA); assay: ELISA, BSA as control coat, antibody diluted 1:1000 to 1:32000, absorbance 450 nm; x axis counts the dilution factor; remark: listed apart in the source

Molecule: Neg. ctrl (Table 6)
absorbance (ELISA) [1]: 0.051 absorbance
absorbance (ELISA) [2]: 0.056 absorbance
absorbance (ELISA) [3]: 0.048 absorbance
absorbance (ELISA) [4]: 0.068 absorbance

B1: antibody 19G10-2 (antibody, V domains shown)
VH: EVQLQQSGAELVRPGALVKLSCKASGFNIKDYHMHWVKERPEQGLEWIGWIDPENGNTMYDPKFQGKASITADTSSNTAYLQLSSLTSEDTAVYYCVRGTARASFDYWGQGTTLTVSS
VL: DIVLTQSPASLAVSLGQRATISCKASQSVDYDGDSYMNWYQQKSGQPPKLLIYAASNLESGIPARFSGSGSGTDFTLNIHPVEEEDAATYYCQQSNVDPWTFGGGTKLEIK
notes: Tested as serum, as hybridoma supernatant and as purified monoclonal; also called 19G10-2 antibody serum; monoclonal antibody hybridoma supernatant 19G10-2
binding result [5]: binds
binding result [6]: binds
binding result [7]: binds
binding result [8]: no binding (tested: 1:1000 dilution)
binding result [9]: no binding (tested: 1:1000 dilution)

B2: antibody 25F1-2 (antibody, V domains shown)
VH: B1 VH with L20W, M34I, E39Q, E46D, N55I, G56D, N57K, M59L, S69R, V97A
VL: B1 VL with S35T, S44P, A54T, E85V, V97E
notes: also called 25F1-2 antibody serum; monoclonal antibody hybridoma supernatant 25F1-2
binding result [6]: binds
binding result [7]: binds
binding result [10]: binds
binding result [8]: no binding (tested: 1:1000 dilution)

More lines, now with the values ahead:

binding result [11]: no binding (tested: 1:10 dilution)
absorbance (ELISA) [12]: 0.058 absorbance
absorbance (ELISA) [13]: 0.689 absorbance
absorbance (ELISA) [14]: 0.055 absorbance
absorbance (ELISA) [15]: 1.28 absorbance
B3: antibody 7C11-1 (antibody, V domains shown)
VH: EVKLVESGGGLVQPGGSLKLSCAASGFTFSRYTMSWVRQTPEKRLEWVAKIRNVGGITYYPDTVKGRFTISRDNAKNTLYLQMSSLKSEDTAMYYCARHYYGSEDYFDYWGQGTTLTVSS
VL: B1 VL with I2N, S44P, L50V, L51F, D74N, V97E
notes: The limits without signal peptide (20-139, 21-131) come from CLM-00005; also called 7C11-1 serum

binding result [16]: no binding (tested: 1:1000 dilution)
B4: mouse antibody 1343ab (antibody, mouse IgG1, kappa, V domains shown)
VH: EVQLQQSGAELVRPGALVKLSCKASGFNIKDYHLHWVKQRPEQGLEWIGWIDPENGNVIYDPKFQGKATMTVVTSSNTAYLQLRSLTSEDTAVYFCTRGTARASFDYWGQGTSLTVSS
VL: DIVLTQSPASLAVSLGQRATISCKASQSVDYDGENYMNWYQQKPGQSPKLLIYVASNLESGIPARFSGSGSGTDFTLNIHPVEEEDAATYYCQQSNLDPWTFGGGTKLEIKR
modifications: N-linked glycosylation detected on heavy chain constant region N at 292; loss of C-terminal lysine observed
notes: also called 23B2
